Measured values reported in the supplement of paper PMC9112550, “Optimization of the antimicrobial peptide Bac7 by deep mutational scanning” (BMC Biology, 2022).

Tested on: Escherichia coli TOP10
Assay: shrunken log2 fold change of peptide-encoding DNA abundance (4.5 h post-induction vs induction); higher = less antimicrobial activity (less host growth inhibition)
Settings: time post-induction: 4.5 h; library: site-saturation at positions 5, 18, 19, 20
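Further: peptides expressed intracellularly from a pBAD plasmid library in pooled LB shake-flask culture, induced with 0.3% L-arabinose, DNA abundance read by NGS, three biological replicates, DESeq2 with apeglm shrinkage.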

Sequence	shrunken log2 fold change
RRIRLRPPRLPRPRPRPMRMPRP	-0.076
RRIRIRPPRLPRPRPRPSAMPRP	-0.349
RRIRARPPRLPRPRPRPVVYPRP	-0.285
RRIRYRPPRLPRPRPRPFPKPRP	-0.28
RRIRGRPPRLPRPRPRPTVQPRP	0.796
RRIRKRPPRLPRPRPRPMSDPRP	0.364
RRIRDRPPRLPRPRPRPFLVPRP	-0.199
RRIRCRPPRLPRPRPRPSQEPRP	0.0585
RRIRIRPPRLPRPRPRPKEQPRP	0.0307
RRIRLRPPRLPRPRPRPWRQPRP	-0.121
RRIRMRPPRLPRPRPRPDNVPRP	-0.0207
RRIRARPPRLPRPRPRPRENPRP	1.06
RRIRRRPPRLPRPRPRPIRCPRP	0.334
RRIRKRPPRLPRPRPRPQMKPRP	-0.0666
RRIRTRPPRLPRPRPRPAWYPRP	-0.172
RRIRPRPPRLPRPRPRPGPGPRP	0.621
RRIRSRPPRLPRPRPRPWYNPRP	-0.502
RRIRGRPPRLPRPRPRPYHEPRP	0.182
RRIRPRPPRLPRPRPRPPVDPRP	0.52
RRIRYRPPRLPRPRPRPVRAPRP	0.774
RRIRHRPPRLPRPRPRPEEWPRP	0.0893
RRIRLRPPRLPRPRPRPQFLPRP	-0.0896
RRIRSRPPRLPRPRPRPIPIPRP	0.159
RRIRVRPPRLPRPRPRPKQHPRP	-0.301
RRIRFRPPRLPRPRPRPRAVPRP	0.475

Sequence	shrunken log2 fold change
RRIRARPPRLPRPRPRPFVIPRP	0.0345
RRIRPRPPRLPRPRPRPMGEPRP	-0.231
RRIRYRPPRLPRPRPRPGQWPRP	0.136
RRIRKRPPRLPRPRPRPPDEPRP	1.89
RRIRPRPPRLPRPRPRPNPHPRP	0.0866
RRIRWRPPRLPRPRPRPGTAPRP	0.392
RRIRIRPPRLPRPRPRPPESPRP	0.185
RRIRFRPPRLPRPRPRPEFDPRP	-0.193
RRIRYRPPRLPRPRPRPKWIPRP	-0.863
RRIRPRPPRLPRPRPRPTRLPRP	0.769
RRIRMRPPRLPRPRPRPITHPRP	0.0509
RRIRGRPPRLPRPRPRPAKGPRP	0.0624
RRIRNRPPRLPRPRPRPLPLPRP	0.187
RRIRRRPPRLPRPRPRPSKFPRP	-0.0219
RRIRIRPPRLPRPRPRPHMRPRP	0.128
RRIRVRPPRLPRPRPRPTYCPRP	-0.327
RRIRERPPRLPRPRPRPDAWPRP	0.0128
RRIRYRPPRLPRPRPRPREPPRP	0.419
RRIRCRPPRLPRPRPRPHCAPRP	-0.254
RRIRARPPRLPRPRPRPTDNPRP	0.152
RRIRYRPPRLPRPRPRPDCNPRP	-0.871
RRIRHRPPRLPRPRPRPQNYPRP	-1.11
RRIRRRPPRLPRPRPRPLQAPRP	0.98
RRIRDRPPRLPRPRPRPHDQPRP	-0.0965
RRIRFRPPRLPRPRPRPKLHPRP	-0.0553

Sequence	shrunken log2 fold change
RRIRLRPPRLPRPRPRPKDPPRP	-0.221
RRIRNRPPRLPRPRPRPCYNPRP	-0.124
RRIRNRPPRLPRPRPRPHYVPRP	-0.121
RRIRGRPPRLPRPRPRPCKMPRP	-0.0103
RRIRYRPPRLPRPRPRPHMCPRP	-0.0704
RRIRFRPPRLPRPRPRPFFDPRP	-0.065
RRIRCRPPRLPRPRPRPLKLPRP	-0.271
RRIRWRPPRLPRPRPRPPCIPRP	0.0939
RRIRHRPPRLPRPRPRPPIPPRP	-0.11
RRIRCRPPRLPRPRPRPAKRPRP	0.0702
RRIRCRPPRLPRPRPRPDFNPRP	-0.242
RRIRSRPPRLPRPRPRPKWPPRP	0.146
RRIRNRPPRLPRPRPRPAHIPRP	0.00258
RRIRKRPPRLPRPRPRPLNAPRP	0.731
RRIRHRPPRLPRPRPRPRGNPRP	0.174
RRIRPRPPRLPRPRPRPRWGPRP	0.509
RRIRVRPPRLPRPRPRPYNRPRP	-0.0579
RRIRRRPPRLPRPRPRPGQVPRP	0.239
RRIRVRPPRLPRPRPRPQVIPRP	-0.00246
RRIRTRPPRLPRPRPRPCKQPRP	-0.254
RRIRERPPRLPRPRPRPNGQPRP	0.0342
RRIRKRPPRLPRPRPRPHMSPRP	0.0205
RRIRARPPRLPRPRPRPYGKPRP	-0.747
RRIRDRPPRLPRPRPRPWIFPRP	0.148
RRIRLRPPRLPRPRPRPSFYPRP	-0.7

Sequence	shrunken log2 fold change
RRIRLRPPRLPRPRPRPELLPRP	0.335
RRIRWRPPRLPRPRPRPQQSPRP	-0.0166
RRIRYRPPRLPRPRPRPYNLPRP	0.00739
RRIRMRPPRLPRPRPRPGQSPRP	1.23
RRIRARPPRLPRPRPRPNNPPRP	0.0346
RRIRTRPPRLPRPRPRPVDFPRP	0.231
RRIRRRPPRLPRPRPRPQDVPRP	-0.108
RRIRERPPRLPRPRPRPMICPRP	-0.115
RRIRYRPPRLPRPRPRPTYEPRP	4.06
RRIRQRPPRLPRPRPRPICDPRP	-0.0181
RRIRYRPPRLPRPRPRPRGRPRP	0.142
RRIRIRPPRLPRPRPRPVMMPRP	-0.31
RRIRPRPPRLPRPRPRPDPKPRP	0.367
RRIRLRPPRLPRPRPRPQTEPRP	-0.0579
RRIRRRPPRLPRPRPRPEVGPRP	0.946
RRIRMRPPRLPRPRPRPAEEPRP	1.55
RRIRERPPRLPRPRPRPIYVPRP	-1.09
RRIRMRPPRLPRPRPRPCTSPRP	0.0228
RRIRHRPPRLPRPRPRPILEPRP	0.077
RRIRGRPPRLPRPRPRPDTWPRP	0.465
RRIRARPPRLPRPRPRPDIRPRP	0.148
RRIRWRPPRLPRPRPRPMRRPRP	0.481
RRIRPRPPRLPRPRPRPYNDPRP	-0.723
RRIRLRPPRLPRPRPRPPAEPRP	0.404
RRIRRRPPRLPRPRPRPALVPRP	0.74

Sequence	shrunken log2 fold change
RRIRERPPRLPRPRPRPDCYPRP	-0.0856
RRIRNRPPRLPRPRPRPTRMPRP	0.245
RRIRPRPPRLPRPRPRPPGSPRP	0.0805
RRIRFRPPRLPRPRPRPYDYPRP	-0.107
RRIRCRPPRLPRPRPRPLLSPRP	-0.306
RRIRKRPPRLPRPRPRPPAHPRP	0.808
RRIRSRPPRLPRPRPRPFLAPRP	-0.311
RRIRNRPPRLPRPRPRPHGPPRP	0.115
RRIRQRPPRLPRPRPRPHVVPRP	-0.086
RRIRERPPRLPRPRPRPRGRPRP	0.358
RRIRPRPPRLPRPRPRPEYIPRP	-0.0411
RRIRGRPPRLPRPRPRPIQAPRP	1.16
RRIRYRPPRLPRPRPRPQVNPRP	-0.0568
RRIRLRPPRLPRPRPRPSWIPRP	-0.131
RRIRDRPPRLPRPRPRPTSIPRP	0.099
RRIRKRPPRLPRPRPRPRRRPRP	1.27
RRIRNRPPRLPRPRPRPWGLPRP	-0.123
RRIRGRPPRLPRPRPRPFFMPRP	0.374
RRIRRRPPRLPRPRPRPWRMPRP	0.00176
RRIRWRPPRLPRPRPRPQKYPRP	-0.348
RRIRYRPPRLPRPRPRPRVKPRP	0.0364
RRIRTRPPRLPRPRPRPCKAPRP	-0.00146
RRIRDRPPRLPRPRPRPFYRPRP	0.03
RRIRDRPPRLPRPRPRPVWMPRP	0.0445
RRIRTRPPRLPRPRPRPTDNPRP	-0.302

Sequence	shrunken log2 fold change
RRIRPRPPRLPRPRPRPGHTPRP	0.179
RRIRKRPPRLPRPRPRPCNHPRP	-0.16
RRIRARPPRLPRPRPRPYKYPRP	-0.227
RRIRPRPPRLPRPRPRPYGCPRP	-0.0896
RRIRCRPPRLPRPRPRPPSTPRP	-0.0239
RRIRGRPPRLPRPRPRPDKSPRP	0.18
RRIRMRPPRLPRPRPRPFITPRP	-0.456
RRIRPRPPRLPRPRPRPFEGPRP	-0.0632
RRIRQRPPRLPRPRPRPEITPRP	0.0276
RRIRFRPPRLPRPRPRPDRDPRP	-0.119
RRIRWRPPRLPRPRPRPHHDPRP	-0.708
RRIRKRPPRLPRPRPRPMCPPRP	0.199
RRIRERPPRLPRPRPRPFPYPRP	-0.256
RRIRKRPPRLPRPRPRPKCEPRP	0.848
RRIRNRPPRLPRPRPRPMYIPRP	-1.03
RRIRCRPPRLPRPRPRPESNPRP	0.00481
RRIRCRPPRLPRPRPRPMQVPRP	-0.0376
RRIRVRPPRLPRPRPRPEANPRP	-0.141
RRIRKRPPRLPRPRPRPENPPRP	0.126
RRIRRRPPRLPRPRPRPIRKPRP	-0.0416
RRIRRRPPRLPRPRPRPYWNPRP	-0.368
RRIRGRPPRLPRPRPRPMMMPRP	0.574
RRIRVRPPRLPRPRPRPPNKPRP	-0.0216
RRIRNRPPRLPRPRPRPDRLPRP	-0.038
RRIRRRPPRLPRPRPRPTMDPRP	0.147
